Here are results for two molecules from article PMC2733745 (The Journal of Cell Biology, 2009).

Test [1] concerns the target FN7–10 (fibronectin type III domains 7–10) (human, UniProt P02751-1 1173-1540). The experiment in a line: SEC.
The target of test [2] is full-length WT αVβ3 stably expressed on K562 cells (human, UniProt P06756;P05106). The experiment in a line: flow cytometry on cells.
Another test deals with 1TM-αVβ3 (human, UniProt P06756;P05106). The experiment in a line: SEC.

B1: 1TM-αVβ3 (complex)
chain 1: FNLDVDSPAEYSGPEGSYFGFAVDFFVPSASSRMFLLVGAPKANTTQPGIVEGGQVLKCDWSSTRRCQPIEFDATGNRDYAKDDPLEFKSHQWFGASVRSKQDKILACAPLYHWRTEMKQEREPVGTCFLQDGTKTVEYAPCRSQDIDADGQGFCQGGFSIDFTKADRVLLGGPGSFYWQGQLISDQVAEIVSKYDPNVYSIKYNNQLATRTAQAIFDDSYLGYSVAVGDFNGDGIDDFVSGVPRAARTLGMVYIYDGKNMSSLYNFTGEQMAAYFGFSVAATDINGDDYADVFIGAPLFMDRGSDGKLQEVGQVSVSLQRASGDFQTTKLNGFEVFARFGSAIAPLGDLDQDGFNDIAIAAPYGGEDKKGIVYIFNGRSTGLNAVPSQILEGQWAARSMPPSFGYSMKGATDIDKNGYPDLIVGAFGVDRAILYRARPVITVNAGLEVYPSILNQDNKTCSLPGTALKVSCFNVRFCLKADGKGVLPRKLNFQVELLLDKLKQKGAIRRALFLYSRSPSHSKNMTISRGGLMQCEELIAYLRDESEFRDKLTPITIFMEYRLDYRTAADTTGLQPILNQFTPANISRQAHILLDCGEDNVCKPKLEVSVDSDQKKIYIGDDNPLTLIVKAQNQGEGAYEAELIVSIPLQADFIGVVRNNEALARLSCAFKTENQTRQVVCDLGNPMKAGTQLLAGLRFSVHQQSEMDTSVKFDLQIQSSNLFDKVSPVVSHKVDLAVLAAVEIRGVSSPDHVFLPIPNWEHKENPETEEDVGPVVQHIYELRNNGPSSFSKAMLHLQWPYKYNNNTLLYILHYDIDGPMNCTSDMEINPLRIKISSLQTTEKNDTVAGQGERDHLITKRDLALSEGDIHTLGCGVAQCLKIVCQVGRLDRGKSAILYVKSLLWTETFMNKENQNHSYSLKSSASFNVIEFPYKNLPIEDITNSTLVTTNVTWGIQPAPMPVPVWVI
chain 2: GPNICTTRGVSSCQQCLAVSPMCAWCSDEALPLGSPRCDLKENLLKDNCAPESIEFPVSEARVLEDRPLSDKGSGDSSQVTQVSPQRIALRLRPDDSKNFSIQVRQVEDYPVDIYYLMDLSYSMKDDLWSIQNLGTKLATQMRKLTSNLRIGFGAFVDKPVSPYMYISPPEALENPCYDMKTTCLPMFGYKHVLTLTDQVTRFNEEVKKQSVSRNRDAPEGGFDAIMQATVCDEKIGWRNDASHLLVFTTDAKTHIALDGRLAGIVQPNDGQCHVGSDNHYSASTTMDYPSLGLMTEKLSQKNINLIFAVTENVVNLYQNYSELIPGTTVGVLSMDSSNVLQLIVDAYGKIRSKVELEVRDLPEELSLSFNATCLNNEVIPGLKSCMGLKIGDTVSFSIEAKVRGCPQEKEKSFTIKPVGFKDSLIVQVTFDCDCACQAQAEPNSHRCNNGNGTFECGVCRCGPGWLGSQCECSEEDYRPSQQDECSPREGQPVCSQRGECLCGQCVCHSSDFGKITGKYCECDDFSCVRYKGEMCSGHGQCSCGDCLCDSDWTGYYCNCTTRTDTCMSSNGLLCSGRGKCECGSCVCIQPGSYGDTCEKCPTCPDACTFKKECVECKKFDRGALHDENTCNRYCRDEIESVKELKDTGKDAVNCTYKNEDDCVVRFQYYEDSSGKSILYVVEEPECPKGPDILVV
As to B1, in test [1], the “stoichiometry N” value is approximately 1 integrin/FN molar ratio.

B2: Fab fragment of the anti–αV propeller mAb 17E6 (Fab, V domains shown)
VH: QVQLQQSGAELAEPGASVKMSCKASGYTFSSFWMHWVKQRPGQGLEWIGYINPRSGYTECNEIFRDKATMTADTSSSTAYMQLSGLTSEDSAVYYCASFLGRGAMDYWGQGTSVTVSS
VL: DIQMTQTTSSLSASLGDRVIISCRASQDISNYLSWYQQKPDGTVKLLIFYTSKLHSGVPSRFSGSGSGTDYSLTISNLDQEDIATYFCQQGNTFPYTFGGGTKVEMR
Regarding B2, the binding result (in test [2]; with 1TM-αVβ3) was “binds” throughout.
